Results on two substances are retold here after patent US20110064733A1.

Experiment [1] addresses Muc1 as expressed by DS6 negative & CM1 positive cell lines (KLE, OVCAR3, SKOV3), without the CA6 glycotope (human) (UniProt P15941). In words: flow cytometry on KLE cells.
Experiment [2] has the same target. Put plainly: flow cytometry on SKOV3 cells.
Experiment [3] has the same target. In words: flow cytometry on OVCAR3 cells.
Experiment [4] has the same target. Put plainly: flow cytometry on KLE cells (DS6 negative).
The target is the same in experiment [5]. In words: flow cytometry on SKOV3 cells (DS6 negative).
The target is the same in experiment [6]. Put plainly: flow cytometry on OVCAR3 cells (DS6 negative).

With CM1 antibody (Muc1 VNTR antibody), the MMF (maximum mean relative fluorescence) (relative fluorescence) in experiment [1] amounted to 562; in experiment [2], 49.4; in experiment [3] it was 192.

For murine anti-CA6 monoclonal antibody DS6, the values for the MMF (maximum mean relative fluorescence) (relative fluorescence) in experiment [4], in experiment [5] and in experiment [6] were 27.5, 17.5 and 21.2, respectively.
